From publication PMC9482650, “Quantitative fragmentomics allow affinity mapping of interactomes” (Nature Communications, 2022)

T1: MPDZ_5, O75970
T1 sequence (O75970 695-796, limits assumed, looked up): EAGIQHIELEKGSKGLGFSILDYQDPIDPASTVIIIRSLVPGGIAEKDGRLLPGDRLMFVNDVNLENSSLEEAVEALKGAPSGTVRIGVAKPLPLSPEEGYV

T2: SNTA1, Q13424
T2 sequence (Q13424 82-180, limits assumed, looked up): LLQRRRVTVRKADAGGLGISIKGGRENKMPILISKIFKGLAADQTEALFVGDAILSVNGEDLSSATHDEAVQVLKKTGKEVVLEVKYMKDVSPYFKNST

T3: MPP6, Q9NZW5
T3 sequence (Q9NZW5 125-219, limits assumed, looked up): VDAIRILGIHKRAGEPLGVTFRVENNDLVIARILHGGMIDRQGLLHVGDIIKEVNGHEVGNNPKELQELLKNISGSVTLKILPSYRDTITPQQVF

T4: DFNB31_3, Q9P202
T4 sequence (Q9P202 811-907, limits assumed, looked up): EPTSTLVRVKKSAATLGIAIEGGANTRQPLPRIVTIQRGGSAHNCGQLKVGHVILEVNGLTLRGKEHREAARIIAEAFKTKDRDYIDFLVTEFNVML

T5: CARD11, Q9BXL7
T5 sequence (Q9BXL7 662-765, limits assumed, looked up): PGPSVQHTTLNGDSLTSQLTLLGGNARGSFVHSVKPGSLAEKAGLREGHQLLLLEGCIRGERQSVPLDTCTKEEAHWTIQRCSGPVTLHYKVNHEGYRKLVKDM

T6: NHERF3_1, Q5T2W1
T6 sequence (Q5T2W1 4-100, limits assumed, looked up): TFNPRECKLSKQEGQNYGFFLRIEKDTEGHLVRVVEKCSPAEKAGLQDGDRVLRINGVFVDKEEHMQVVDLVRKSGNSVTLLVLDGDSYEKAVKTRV

T7: SIPA1L2, Q9P2F8
T7 sequence (Q9P2F8 945-1036, limits assumed, looked up): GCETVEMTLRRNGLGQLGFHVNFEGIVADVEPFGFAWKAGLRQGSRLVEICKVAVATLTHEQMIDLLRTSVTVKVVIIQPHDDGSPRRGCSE

T8: LIN7A, O14910
T8 sequence (O14910 103-200, limits assumed, looked up): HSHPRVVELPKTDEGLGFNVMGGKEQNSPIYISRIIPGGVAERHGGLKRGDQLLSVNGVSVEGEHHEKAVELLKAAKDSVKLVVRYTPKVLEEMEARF

T9: NHERF3_4, Q5T2W1
T9 sequence (Q5T2W1 373-468, limits assumed, looked up): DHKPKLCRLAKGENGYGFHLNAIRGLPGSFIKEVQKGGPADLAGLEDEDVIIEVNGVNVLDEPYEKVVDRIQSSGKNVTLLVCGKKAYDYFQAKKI

T10: PDZD2_2, O15018
T10 sequence (O15018 329-429, limits assumed, looked up): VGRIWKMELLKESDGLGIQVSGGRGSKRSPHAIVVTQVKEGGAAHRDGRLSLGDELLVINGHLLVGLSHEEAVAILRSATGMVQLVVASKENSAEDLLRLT

T11: DFNB31_2, Q9P202
T11 sequence (Q9P202 274-371, limits assumed, looked up): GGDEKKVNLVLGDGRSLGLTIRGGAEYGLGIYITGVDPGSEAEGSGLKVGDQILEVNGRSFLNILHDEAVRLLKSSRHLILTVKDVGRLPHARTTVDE

T12: PCLO, Q9Y6V0
T12 sequence (Q9Y6V0 4491-4600, limits assumed, looked up): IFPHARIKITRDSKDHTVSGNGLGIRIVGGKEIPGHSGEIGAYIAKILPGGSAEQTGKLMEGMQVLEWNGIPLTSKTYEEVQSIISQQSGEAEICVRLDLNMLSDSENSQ


biological target: GRIP2_6, Q9C0E4; assay: holdup assay; set-up: key: below the threshold = too weak to quantify, mostly under pKd 3.1 to 4; conditions: plain residues with an end cap or a label only (N-terminal biotin on a linker: ado-ado)
Sequence (Q9C0E4 648-740): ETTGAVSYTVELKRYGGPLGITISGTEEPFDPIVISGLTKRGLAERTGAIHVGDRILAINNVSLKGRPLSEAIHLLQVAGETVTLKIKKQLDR

| Binder | pKd |
| --- | --- |
| DDPSTAETVL [ABCA7, Q8IZY2] | below the threshold |

biological target: DLG1_2, Q12959; assay: holdup assay; set-up: key: below the threshold = too weak to quantify, mostly under pKd 3.1 to 4; conditions: plain residues with an end cap or a label only (N-terminal biotin on a linker: ado-ado)

| Binder | pKd |
| --- | --- |
| DDPSTAETVL [ABCA7, Q8IZY2] | 3.78 |

biological target: T1, MPDZ_5, O75970; assay: holdup assay; set-up: key: below the threshold = too weak to quantify, mostly under pKd 3.1 to 4; conditions: plain residues with an end cap or a label only (N-terminal biotin on a linker: ado-ado)

| Binder | pKd |
| --- | --- |
| DDPSTAETVL [ABCA7, Q8IZY2] | below the threshold |

biological target: T2, SNTA1, Q13424; assay: holdup assay; set-up: key: below the threshold = too weak to quantify, mostly under pKd 3.1 to 4; conditions: plain residues with an end cap or a label only (N-terminal biotin on a linker: ado-ado)

| Binder | pKd |
| --- | --- |
| DDPSTAETVL [ABCA7, Q8IZY2] | 4.71 |

biological target: T3, MPP6, Q9NZW5; assay: holdup assay; set-up: key: below the threshold = too weak to quantify, mostly under pKd 3.1 to 4; conditions: plain residues with an end cap or a label only (N-terminal biotin on a linker: ado-ado)

| Binder | pKd |
| --- | --- |
| DDPSTAETVL [ABCA7, Q8IZY2] | below the threshold |

biological target: DLG1_1, Q12959; assay: holdup assay; set-up: key: below the threshold = too weak to quantify, mostly under pKd 3.1 to 4; conditions: plain residues with an end cap or a label only (N-terminal biotin on a linker: ado-ado)

| Binder | pKd |
| --- | --- |
| DDPSTAETVL [ABCA7, Q8IZY2] | below the threshold |

biological target: T4, DFNB31_3, Q9P202; assay: holdup assay; set-up: key: below the threshold = too weak to quantify, mostly under pKd 3.1 to 4; conditions: plain residues with an end cap or a label only (N-terminal biotin on a linker: ado-ado)

| Binder | pKd |
| --- | --- |
| DDPSTAETVL [ABCA7, Q8IZY2] | 3.63 |

biological target: IL16_3, Q14005; assay: holdup assay; set-up: key: below the threshold = too weak to quantify, mostly under pKd 3.1 to 4; conditions: plain residues with an end cap or a label only (N-terminal biotin on a linker: ado-ado)
Sequence (Q14005 1107-1207): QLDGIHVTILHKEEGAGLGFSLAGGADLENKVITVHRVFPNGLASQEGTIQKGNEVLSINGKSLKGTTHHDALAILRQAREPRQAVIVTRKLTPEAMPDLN

| Binder | pKd |
| --- | --- |
| DDPSTAETVL [ABCA7, Q8IZY2] | below the threshold |

biological target: T5, CARD11, Q9BXL7; assay: holdup assay; set-up: key: below the threshold = too weak to quantify, mostly under pKd 3.1 to 4; conditions: plain residues with an end cap or a label only (N-terminal biotin on a linker: ado-ado)

| Binder | pKd |
| --- | --- |
| DDPSTAETVL [ABCA7, Q8IZY2] | below the threshold |

biological target: T6, NHERF3_1, Q5T2W1; assay: holdup assay; set-up: key: below the threshold = too weak to quantify, mostly under pKd 3.1 to 4; conditions: plain residues with an end cap or a label only (N-terminal biotin on a linker: ado-ado)

| Binder | pKd |
| --- | --- |
| DDPSTAETVL [ABCA7, Q8IZY2] | 4.64 |

biological target: GRIP2_5, Q9C0E4; assay: holdup assay; set-up: key: below the threshold = too weak to quantify, mostly under pKd 3.1 to 4; conditions: plain residues with an end cap or a label only (N-terminal biotin on a linker: ado-ado)
Sequence (Q9C0E4 544-642): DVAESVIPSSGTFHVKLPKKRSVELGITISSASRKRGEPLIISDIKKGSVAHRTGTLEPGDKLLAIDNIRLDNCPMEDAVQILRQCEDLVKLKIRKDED

| Binder | pKd |
| --- | --- |
| DDPSTAETVL [ABCA7, Q8IZY2] | below the threshold |

biological target: MAST1, Q9Y2H9; assay: holdup assay; set-up: key: below the threshold = too weak to quantify, mostly under pKd 3.1 to 4; conditions: plain residues with an end cap or a label only (N-terminal biotin on a linker: ado-ado)
Sequence (Q9Y2H9 962-1065): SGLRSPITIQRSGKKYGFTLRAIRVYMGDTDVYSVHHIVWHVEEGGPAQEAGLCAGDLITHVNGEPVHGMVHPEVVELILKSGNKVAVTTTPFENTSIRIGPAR

| Binder | pKd |
| --- | --- |
| DDPSTAETVL [ABCA7, Q8IZY2] | 4.88 |

biological target: DLG2_3, Q15700; assay: holdup assay; set-up: key: below the threshold = too weak to quantify, mostly under pKd 3.1 to 4; conditions: plain residues with an end cap or a label only (N-terminal biotin on a linker: ado-ado)

| Binder | pKd |
| --- | --- |
| DDPSTAETVL [ABCA7, Q8IZY2] | 3.88 |

biological target: GIPC2, Q8TF65; assay: holdup assay; set-up: key: below the threshold = too weak to quantify, mostly under pKd 3.1 to 4; conditions: plain residues with an end cap or a label only (N-terminal biotin on a linker: ado-ado)
Sequence (Q8TF65 112-203): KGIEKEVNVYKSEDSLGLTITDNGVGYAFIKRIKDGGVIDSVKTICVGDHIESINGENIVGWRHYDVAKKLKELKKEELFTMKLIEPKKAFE

| Binder | pKd |
| --- | --- |
| DDPSTAETVL [ABCA7, Q8IZY2] | below the threshold |

biological target: GRID2IP_2, A4D2P6; assay: holdup assay; set-up: key: below the threshold = too weak to quantify, mostly under pKd 3.1 to 4; conditions: plain residues with an end cap or a label only (N-terminal biotin on a linker: ado-ado)
Sequence (A4D2P6 272-370): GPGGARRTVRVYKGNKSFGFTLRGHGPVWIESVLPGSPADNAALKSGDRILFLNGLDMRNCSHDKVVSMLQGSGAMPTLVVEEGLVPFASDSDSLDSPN

| Binder | pKd |
| --- | --- |
| DDPSTAETVL [ABCA7, Q8IZY2] | below the threshold |

biological target: T7, SIPA1L2, Q9P2F8; assay: holdup assay; set-up: key: below the threshold = too weak to quantify, mostly under pKd 3.1 to 4; conditions: plain residues with an end cap or a label only (N-terminal biotin on a linker: ado-ado)

| Binder | pKd |
| --- | --- |
| DDPSTAETVL [ABCA7, Q8IZY2] | below the threshold |

biological target: T8, LIN7A, O14910; assay: holdup assay; set-up: key: below the threshold = too weak to quantify, mostly under pKd 3.1 to 4; conditions: plain residues with an end cap or a label only (N-terminal biotin on a linker: ado-ado)

| Binder | pKd |
| --- | --- |
| DDPSTAETVL [ABCA7, Q8IZY2] | below the threshold |

biological target: T9, NHERF3_4, Q5T2W1; assay: holdup assay; set-up: key: below the threshold = too weak to quantify, mostly under pKd 3.1 to 4; conditions: plain residues with an end cap or a label only (N-terminal biotin on a linker: ado-ado)

| Binder | pKd |
| --- | --- |
| DDPSTAETVL [ABCA7, Q8IZY2] | below the threshold |

biological target: T10, PDZD2_2, O15018; assay: holdup assay; set-up: key: below the threshold = too weak to quantify, mostly under pKd 3.1 to 4; conditions: plain residues with an end cap or a label only (N-terminal biotin on a linker: ado-ado)

| Binder | pKd |
| --- | --- |
| DDPSTAETVL [ABCA7, Q8IZY2] | below the threshold |

biological target: MAGI2_2, Q86UL8; assay: holdup assay; set-up: key: below the threshold = too weak to quantify, mostly under pKd 3.1 to 4; conditions: plain residues with an end cap or a label only (N-terminal biotin on a linker: ado-ado)
Sequence (Q86UL8 410-522): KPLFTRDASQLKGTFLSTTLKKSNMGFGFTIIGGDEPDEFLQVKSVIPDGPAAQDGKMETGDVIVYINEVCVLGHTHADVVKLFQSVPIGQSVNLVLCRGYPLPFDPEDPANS

| Binder | pKd |
| --- | --- |
| DDPSTAETVL [ABCA7, Q8IZY2] | below the threshold |

biological target: T11, DFNB31_2, Q9P202; assay: holdup assay; set-up: key: below the threshold = too weak to quantify, mostly under pKd 3.1 to 4; conditions: plain residues with an end cap or a label only (N-terminal biotin on a linker: ado-ado)

| Binder | pKd |
| --- | --- |
| DDPSTAETVL [ABCA7, Q8IZY2] | below the threshold |

biological target: FRMPD2_3, Q68DX3; assay: holdup assay; set-up: key: below the threshold = too weak to quantify, mostly under pKd 3.1 to 4; conditions: plain residues with an end cap or a label only (N-terminal biotin on a linker: ado-ado)
Sequence (Q68DX3 1073-1166): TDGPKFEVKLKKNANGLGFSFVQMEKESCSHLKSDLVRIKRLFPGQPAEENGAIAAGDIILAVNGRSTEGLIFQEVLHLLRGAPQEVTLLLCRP

| Binder | pKd |
| --- | --- |
| DDPSTAETVL [ABCA7, Q8IZY2] | below the threshold |

biological target: GRASP, Q7Z6J2; assay: holdup assay; set-up: key: below the threshold = too weak to quantify, mostly under pKd 3.1 to 4; conditions: plain residues with an end cap or a label only (N-terminal biotin on a linker: ado-ado)
Sequence (Q7Z6J2 96-193): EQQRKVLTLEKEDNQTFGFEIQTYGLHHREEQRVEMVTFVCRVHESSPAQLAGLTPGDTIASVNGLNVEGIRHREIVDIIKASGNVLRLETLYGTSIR

| Binder | pKd |
| --- | --- |
| DDPSTAETVL [ABCA7, Q8IZY2] | below the threshold |

biological target: T12, PCLO, Q9Y6V0; assay: holdup assay; set-up: key: below the threshold = too weak to quantify, mostly under pKd 3.1 to 4; conditions: plain residues with an end cap or a label only (N-terminal biotin on a linker: ado-ado)

| Binder | pKd |
| --- | --- |
| DDPSTAETVL [ABCA7, Q8IZY2] | below the threshold |

biological target: FRMPD2_2, Q68DX3; assay: holdup assay; set-up: key: below the threshold = too weak to quantify, mostly under pKd 3.1 to 4; conditions: plain residues with an end cap or a label only (N-terminal biotin on a linker: ado-ado)
Sequence (Q68DX3 944-1038): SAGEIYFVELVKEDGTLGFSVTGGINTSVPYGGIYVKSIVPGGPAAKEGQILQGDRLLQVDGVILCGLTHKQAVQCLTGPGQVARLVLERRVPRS

| Binder | pKd |
| --- | --- |
| DDPSTAETVL [ABCA7, Q8IZY2] | below the threshold |

biological target: NHERF2_2, Q15599; assay: holdup assay; set-up: key: below the threshold = too weak to quantify, mostly under pKd 3.1 to 4; conditions: plain residues with an end cap or a label only (N-terminal biotin on a linker: ado-ado)
Sequence (Q15599 142-238): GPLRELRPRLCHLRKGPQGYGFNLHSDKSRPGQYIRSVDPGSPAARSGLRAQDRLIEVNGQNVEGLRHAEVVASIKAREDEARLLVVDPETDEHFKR

| Binder | pKd |
| --- | --- |
| DDPSTAETVL [ABCA7, Q8IZY2] | 4.42 |
